The values that follow come from patent US20230192820A1 (published 2023).

By EC50 is commonly meant the concentration that produces a half-maximal response. The low end stands for higher potency in that assay, the high end for lower potency in that assay.

In the assay the target is Wild type. Description: ELISA.

B1: Mab362 (antibody, V domains shown)
VH: QVQLVESGGGVVQPGRSLRLSCAASGFSFSSYGMHWVRQAPGKGLEWVAVIWYDGSDKYYADSVKGRFTISRDNSKNTLYLQLNSLRAEDTAIYYCARERYFDWIFDFWGQGTLVTVSS
VL: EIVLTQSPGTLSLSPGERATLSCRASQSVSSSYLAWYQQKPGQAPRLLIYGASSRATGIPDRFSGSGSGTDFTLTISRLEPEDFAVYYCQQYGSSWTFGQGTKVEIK
In the case of B1, the half-maximal effective concentration (EC50) turned out to be 0.64 µg/mL.
